Laboratory results taken from publication PMC7039193 (The Journal of Cell Biology, 2019).

Target: GST-EVH1 domain of VASP (UniProt P50552 1-113)
Assay: pull-down

Chain of GST-EVH1 domain of VASP (P50552 1-113): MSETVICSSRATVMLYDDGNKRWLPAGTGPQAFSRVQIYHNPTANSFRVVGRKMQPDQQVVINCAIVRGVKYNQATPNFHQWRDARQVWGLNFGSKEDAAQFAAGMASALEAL

B1: endogenous TRIM9 (mouse embryonic cortex) (natural protein, mouse (endogenous in embryonic cortex), UniProt Q8C7M3 1-817, looked up)
chain: MEEMEEELKCPVCGSFYREPIILPCSHNLCQACARNILVQTPESESPQSRRASGSGVSDYDYLDLDKMSLYSEADSGYGSYGGFASAPTTPCQKSPNGVRVFPPAMPPPPTHLSPALAPVPRNSCITCPQCHRSLILDDRGLRGFPKNRVLEGVIDRYQQSKAAALKCQLCEKAPKEATVMCEQCDVFYCDPCRLRCHPPRGPLAKHRLVPPAQGRVSRRLSPRKVSTCTDHELENHSMYCVQCKMPVCYQCLEEGKHSSHEVKALGAMWKLHKSQLSQALNGLSDRAKEAKEFLVQLRTMVQQIQENSVEFEACLVAQCDALIDALNRRKAQLLARVNKEHEHKLKVVRDQISHCTVKLRQTTGLMEYCLEVIKENDPSGFLQISDALIRRVHLTEDQWGKGTLTPRMTTDFDLSLDNSPLLQSIHQLDFVQVKASSPVPATPILQLEECCTHNNSATLSWKQPPLSTVAADGYILELDDGSGGQFREVYVGKETMCTVDGLHFNSTYNARVKAFNKTGVSPYSKTLVLQTSEAAGAHETKPMKDTDSEEQTLPFPVPSERLPLRRMSPFSSTLNLQPSFPGRSYFDFRSSPHQLSLHSSLQSLNAPGCNFETQSASYSQLVDIKKLLAVAWFAFDPGSAHSDIIFSNDNLTVTCSSYDDRVVLGKTGFSKGVHYWELTIDRYDNHPDPAFGVARIDVMKDMMLGKDDKAWAMYVDNNRSWFMHNNSHTNRTEGGITKGATIGVLLDLNRKTLTFFVNNEQQGPIAFENVEGLFFPAVSLNRNVQVSLWAPGLRACSGCYFKVCPGAVKSPQAPAP
fold change of TRIM9 precipitated, Trim67-/- lysate against WT lysate: ~2 fold
